Patent publication US20260116944A1, “NOVEL TRIPLE GLP-1/GIP/GLUCAGON RECEPTOR AGONIST AND A PHARMACEUTICAL COMPOSITION FOR PREVENTING OR TREATING OBESITY COMPRISING THE SAME” (HANMI PHARM. CO., LTD., priority 2022, published 2026)
*1 amine or outer side, *2 acyl side, *3 side chain or, on linkers, in order; H or OH if unused. Bridges are numbered along the chain shown (N, C = ends). Where no end group is shown, it is not given here. Side-chain parts run from the residue outwards. [ ]: non-standard residue; d: D form. The star is where a group is joined. C20 diacid = O=C(O)CCCCCCCCCCCCCCCCCCC(=O)*; γGlu = O=C(O)[C@H](CCC(=O)[*:2])N[*:1]; AEEA = NCCOCCOCC(=O)O; Aib = CC(C)(N)C(=O)O

B1: triple agonist of SEQ ID NO: 4 (peptide)
peptide: Y[Aib]QGTFTSDYSK([AEEA-AEEA-γGlu-C20 diacid])YLDEKRAKDFVQWLLDHHPSSGQPPPS-NH2
modifications: lactam 16-20; N-terminus assumed
SMILES: CC(C)C[C@H](NC(=O)[C@H](Cc1ccc(O)cc1)NC(=O)[C@H](CCCCNC(=O)COCCOCCNC(=O)COCCOCCNC(=O)CC[C@H](NC(=O)CCCCCCCCCCCCCCCCCCC(=O)O)C(=O)O)NC(=O)[C@H](CO)NC(=O)[C@H](Cc1ccc(O)cc1)NC(=O)[C@H](CC(=O)O)NC(=O)[C@H](CO)NC(=O)[C@@H](NC(=O)[C@H](Cc1ccccc1)NC(=O)[C@@H](NC(=O)CNC(=O)[C@H](CCC(N)=O)NC(=O)C(C)(C)NC(=O)[C@@H](N)Cc1ccc(O)cc1)[C@@H](C)O)[C@@H](C)O)C(=O)N[C@@H](CC(=O)O)C(=O)N[C@H]1CCC(=O)NCCCC[C@@H](C(=O)N[C@@H](CC(=O)O)C(=O)N[C@@H](Cc2ccccc2)C(=O)N[C@H](C(=O)N[C@@H](CCC(N)=O)C(=O)N[C@@H](Cc2c[nH]c3ccccc23)C(=O)N[C@@H](CC(C)C)C(=O)N[C@@H](CC(C)C)C(=O)N[C@@H](CC(=O)O)C(=O)N[C@@H](Cc2c[nH]cn2)C(=O)N[C@@H](Cc2c[nH]cn2)C(=O)N2CCC[C@H]2C(=O)N[C@@H](CO)C(=O)N[C@@H](CO)C(=O)NCC(=O)N[C@@H](CCC(N)=O)C(=O)N2CCC[C@H]2C(=O)N2CCC[C@H]2C(=O)N2CCC[C@H]2C(=O)N[C@@H](CO)C(N)=O)C(C)C)NC(=O)[C@H](C)NC(=O)[C@H](CCCNC(=N)N)NC(=O)[C@H](CCCCN)NC1=O
B2: triple agonist of SEQ ID NO: 1 (peptide)
peptide: Y[Aib]QGTFTSDYSK([AEEA-AEEA-γGlu-C20 diacid])YLDEKAAKEFVQWLLDHHPSSGQPPPS-NH2
modifications: lactam 16-20; N-terminus assumed
SMILES: CC(C)C[C@H](NC(=O)[C@H](Cc1ccc(O)cc1)NC(=O)[C@H](CCCCNC(=O)COCCOCCNC(=O)COCCOCCNC(=O)CC[C@H](NC(=O)CCCCCCCCCCCCCCCCCCC(=O)O)C(=O)O)NC(=O)[C@H](CO)NC(=O)[C@H](Cc1ccc(O)cc1)NC(=O)[C@H](CC(=O)O)NC(=O)[C@H](CO)NC(=O)[C@@H](NC(=O)[C@H](Cc1ccccc1)NC(=O)[C@@H](NC(=O)CNC(=O)[C@H](CCC(N)=O)NC(=O)C(C)(C)NC(=O)[C@@H](N)Cc1ccc(O)cc1)[C@@H](C)O)[C@@H](C)O)C(=O)N[C@@H](CC(=O)O)C(=O)N[C@H]1CCC(=O)NCCCC[C@@H](C(=O)N[C@@H](CCC(=O)O)C(=O)N[C@@H](Cc2ccccc2)C(=O)N[C@H](C(=O)N[C@@H](CCC(N)=O)C(=O)N[C@@H](Cc2c[nH]c3ccccc23)C(=O)N[C@@H](CC(C)C)C(=O)N[C@@H](CC(C)C)C(=O)N[C@@H](CC(=O)O)C(=O)N[C@@H](Cc2c[nH]cn2)C(=O)N[C@@H](Cc2c[nH]cn2)C(=O)N2CCC[C@H]2C(=O)N[C@@H](CO)C(=O)N[C@@H](CO)C(=O)NCC(=O)N[C@@H](CCC(N)=O)C(=O)N2CCC[C@H]2C(=O)N2CCC[C@H]2C(=O)N2CCC[C@H]2C(=O)N[C@@H](CO)C(N)=O)C(C)C)NC(=O)[C@H](C)NC(=O)[C@H](C)NC(=O)[C@H](CCCCN)NC1=O
B3: triple agonist of SEQ ID NO: 5 (peptide)
peptide: Y[Aib]QGTFTSDYSK([AEEA-AEEA-γGlu-C20 diacid])ALDEKRAKEFVQWLLDQHPSSGQPPPS-NH2
modifications: lactam 16-20; N-terminus assumed
SMILES: CC(C)C[C@H](NC(=O)[C@H](C)NC(=O)[C@H](CCCCNC(=O)COCCOCCNC(=O)COCCOCCNC(=O)CC[C@H](NC(=O)CCCCCCCCCCCCCCCCCCC(=O)O)C(=O)O)NC(=O)[C@H](CO)NC(=O)[C@H](Cc1ccc(O)cc1)NC(=O)[C@H](CC(=O)O)NC(=O)[C@H](CO)NC(=O)[C@@H](NC(=O)[C@H](Cc1ccccc1)NC(=O)[C@@H](NC(=O)CNC(=O)[C@H](CCC(N)=O)NC(=O)C(C)(C)NC(=O)[C@@H](N)Cc1ccc(O)cc1)[C@@H](C)O)[C@@H](C)O)C(=O)N[C@@H](CC(=O)O)C(=O)N[C@H]1CCC(=O)NCCCC[C@@H](C(=O)N[C@@H](CCC(=O)O)C(=O)N[C@@H](Cc2ccccc2)C(=O)N[C@H](C(=O)N[C@@H](CCC(N)=O)C(=O)N[C@@H](Cc2c[nH]c3ccccc23)C(=O)N[C@@H](CC(C)C)C(=O)N[C@@H](CC(C)C)C(=O)N[C@@H](CC(=O)O)C(=O)N[C@@H](CCC(N)=O)C(=O)N[C@@H](Cc2c[nH]cn2)C(=O)N2CCC[C@H]2C(=O)N[C@@H](CO)C(=O)N[C@@H](CO)C(=O)NCC(=O)N[C@@H](CCC(N)=O)C(=O)N2CCC[C@H]2C(=O)N2CCC[C@H]2C(=O)N2CCC[C@H]2C(=O)N[C@@H](CO)C(N)=O)C(C)C)NC(=O)[C@H](C)NC(=O)[C@H](CCCNC(=N)N)NC(=O)[C@H](CCCCN)NC1=O
B4: triple agonist of SEQ ID NO: 7 (peptide)
peptide: Y[Aib]QGTFTSDYSK([AEEA-AEEA-γGlu-C20 diacid])YLDEKRAKDFVQWLLDQHPSSGQPPPS-NH2
modifications: lactam 16-20; N-terminus assumed
SMILES: CC(C)C[C@H](NC(=O)[C@H](Cc1ccc(O)cc1)NC(=O)[C@H](CCCCNC(=O)COCCOCCNC(=O)COCCOCCNC(=O)CC[C@H](NC(=O)CCCCCCCCCCCCCCCCCCC(=O)O)C(=O)O)NC(=O)[C@H](CO)NC(=O)[C@H](Cc1ccc(O)cc1)NC(=O)[C@H](CC(=O)O)NC(=O)[C@H](CO)NC(=O)[C@@H](NC(=O)[C@H](Cc1ccccc1)NC(=O)[C@@H](NC(=O)CNC(=O)[C@H](CCC(N)=O)NC(=O)C(C)(C)NC(=O)[C@@H](N)Cc1ccc(O)cc1)[C@@H](C)O)[C@@H](C)O)C(=O)N[C@@H](CC(=O)O)C(=O)N[C@H]1CCC(=O)NCCCC[C@@H](C(=O)N[C@@H](CC(=O)O)C(=O)N[C@@H](Cc2ccccc2)C(=O)N[C@H](C(=O)N[C@@H](CCC(N)=O)C(=O)N[C@@H](Cc2c[nH]c3ccccc23)C(=O)N[C@@H](CC(C)C)C(=O)N[C@@H](CC(C)C)C(=O)N[C@@H](CC(=O)O)C(=O)N[C@@H](CCC(N)=O)C(=O)N[C@@H](Cc2c[nH]cn2)C(=O)N2CCC[C@H]2C(=O)N[C@@H](CO)C(=O)N[C@@H](CO)C(=O)NCC(=O)N[C@@H](CCC(N)=O)C(=O)N2CCC[C@H]2C(=O)N2CCC[C@H]2C(=O)N2CCC[C@H]2C(=O)N[C@@H](CO)C(N)=O)C(C)C)NC(=O)[C@H](C)NC(=O)[C@H](CCCNC(=N)N)NC(=O)[C@H](CCCCN)NC1=O
B5: triple agonist of SEQ ID NO: 6 (peptide)
peptide: H[Aib]HGTFTSDYSK([AEEA-AEEA-γGlu-C20 diacid])YLDEKAAKDFVQWLLDQHPSSGQPPPS-NH2
modifications: lactam 16-20; N-terminus assumed
SMILES: CC(C)C[C@H](NC(=O)[C@H](Cc1ccc(O)cc1)NC(=O)[C@H](CCCCNC(=O)COCCOCCNC(=O)COCCOCCNC(=O)CC[C@H](NC(=O)CCCCCCCCCCCCCCCCCCC(=O)O)C(=O)O)NC(=O)[C@H](CO)NC(=O)[C@H](Cc1ccc(O)cc1)NC(=O)[C@H](CC(=O)O)NC(=O)[C@H](CO)NC(=O)[C@@H](NC(=O)[C@H](Cc1ccccc1)NC(=O)[C@@H](NC(=O)CNC(=O)[C@H](Cc1c[nH]cn1)NC(=O)C(C)(C)NC(=O)[C@@H](N)Cc1c[nH]cn1)[C@@H](C)O)[C@@H](C)O)C(=O)N[C@@H](CC(=O)O)C(=O)N[C@H]1CCC(=O)NCCCC[C@@H](C(=O)N[C@@H](CC(=O)O)C(=O)N[C@@H](Cc2ccccc2)C(=O)N[C@H](C(=O)N[C@@H](CCC(N)=O)C(=O)N[C@@H](Cc2c[nH]c3ccccc23)C(=O)N[C@@H](CC(C)C)C(=O)N[C@@H](CC(C)C)C(=O)N[C@@H](CC(=O)O)C(=O)N[C@@H](CCC(N)=O)C(=O)N[C@@H](Cc2c[nH]cn2)C(=O)N2CCC[C@H]2C(=O)N[C@@H](CO)C(=O)N[C@@H](CO)C(=O)NCC(=O)N[C@@H](CCC(N)=O)C(=O)N2CCC[C@H]2C(=O)N2CCC[C@H]2C(=O)N2CCC[C@H]2C(=O)N[C@@H](CO)C(N)=O)C(C)C)NC(=O)[C@H](C)NC(=O)[C@H](C)NC(=O)[C@H](CCCCN)NC1=O

The binders below were run against human GCG receptor (human, UniProt P47871 26-477) (assay: cell-based or functional assay).
Chain of human GCG receptor (P47871 26-477): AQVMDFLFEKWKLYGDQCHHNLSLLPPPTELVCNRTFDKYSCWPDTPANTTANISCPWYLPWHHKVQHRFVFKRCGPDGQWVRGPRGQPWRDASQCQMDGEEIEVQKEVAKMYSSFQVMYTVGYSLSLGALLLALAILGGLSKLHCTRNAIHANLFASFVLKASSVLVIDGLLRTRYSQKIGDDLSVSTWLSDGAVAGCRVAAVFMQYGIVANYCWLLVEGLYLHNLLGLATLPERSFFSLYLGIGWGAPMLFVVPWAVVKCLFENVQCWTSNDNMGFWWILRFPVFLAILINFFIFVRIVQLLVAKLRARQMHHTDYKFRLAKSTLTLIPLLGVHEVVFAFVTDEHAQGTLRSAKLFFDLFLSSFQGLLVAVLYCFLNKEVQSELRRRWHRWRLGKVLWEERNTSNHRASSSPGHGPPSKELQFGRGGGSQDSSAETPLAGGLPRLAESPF

| Binder | In vitro Activity Compared to Native Peptide (%) vs. Glucagon (relative titer from cAMP EC50) |
| --- | --- |
| B1 | 2.36 % of human GCG |
| B2 | 0.33 % of human GCG |
| B3 | 1.51 % of human GCG |
| B4 | 3.32 % of human GCG |
| B5 | 1.36 % of human GCG |

Each binder was assayed against human GLP-1 receptor (human, UniProt P43220 24-463) (assay: cell-based or functional assay).

| Binder | In vitro Activity Compared to Native Peptide (%) vs. GLP-1 (relative titer from cAMP EC50) |
| --- | --- |
| B1 | 3.71 % of human GLP-1 |
| B2 | 5.88 % of human GLP-1 |
| B3 | 2.36 % of human GLP-1 |
| B4 | 4.21 % of human GLP-1 |
| B5 | 7.94 % of human GLP-1 |

What follows are binders tested against T1, human GIP receptor (human, UniProt P48546 22-466) (assay: cell-based or functional assay).
T1 sequence (looked up): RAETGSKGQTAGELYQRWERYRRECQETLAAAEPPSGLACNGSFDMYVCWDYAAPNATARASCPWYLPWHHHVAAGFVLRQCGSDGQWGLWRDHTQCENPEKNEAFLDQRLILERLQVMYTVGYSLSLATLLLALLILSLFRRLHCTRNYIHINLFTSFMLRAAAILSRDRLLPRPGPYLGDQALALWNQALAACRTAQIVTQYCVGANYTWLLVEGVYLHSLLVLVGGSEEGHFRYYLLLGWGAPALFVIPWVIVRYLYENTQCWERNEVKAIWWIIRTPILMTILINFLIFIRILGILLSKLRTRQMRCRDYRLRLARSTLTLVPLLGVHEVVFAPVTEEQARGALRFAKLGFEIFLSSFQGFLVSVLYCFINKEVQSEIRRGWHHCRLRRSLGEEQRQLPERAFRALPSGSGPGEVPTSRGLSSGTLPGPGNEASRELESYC

| Binder | In vitro Activity Compared to Native Peptide (%) vs. GIP (relative titer from cAMP EC50) |
| --- | --- |
| B1 | 3.81 % of human GIP |
| B2 | 5.18 % of human GIP |
| B3 | 5.29 % of human GIP |
| B4 | 5.26 % of human GIP |
| B5 | 6.11 % of human GIP |
